Measurements from article PMC2114792 (The Journal of Cell Biology, 1987).

Molecular target: the molecule itself
Assay: rotary shadowing electron microscopy

B1: chicken hexabrachion protein (myotendinous (M1) antigen) (natural protein, UniProt P10039 34-1808, looked up)
chain: ETGLNVTLPEDNQPVVFNHVYNIKLPVGSLCSVDLDTASGDADLKAEIEPVKNYEEHTVNEGNQIVFTHRINIPRRACGCAAAPDIKDLLSRLEELEGLVSSLREQCASGAGCCPNSQTAEGRLDTAPYCSGHGNYSTEICGCVCEPGWKGPNCSEPACPRNCLNRGLCVRGKCICEEGFTGEDCSQAACPSDCNDQGKCVDGVCVCFEGYTGPDCGEELCPHGCGIHGRCVGGRCVCHEGFTGEDCNEPLCPNNCHNRGRCVDNECVCDEGYTGEDCGELICPNDCFDRGRCINGTCFCEEGYTGEDCGELTCPNNCNGNGRCENGLCVCHEGFVGDDCSQKRCPKDCNNRGHCVDGRCVCHEGYLGEDCGELRCPNDCHNRGRCINGQCVCDEGFIGEDCGELRCPNDCHNRGRCVNGQCECHEGFIGEDCGELRCPNDCNSHGRCVNGQCVCDEGYTGEDCGELRCPNDCHNRGRCVEGRCVCDNGFMGEDCGELSCPNDCHQHGRCVDGRCVCHEGFTGEDCRERSCPNDCNNVGRCVEGRCVCEEGYMGIDCSDVSPPTELTVTNVTDKTVNLEWKHENLVNEYLVTYVPTSSGGLDLQFTVPGNQTSATIHELEPGVEYFIRVFAILKNKKSIPVSARVATYLPAPEGLKFKSVRETSVQVEWDPLSISFDGWELVFRNMQKKDDNGDITSSLKRPETSYMQPGLAPGQQYNVSLHIVKNNTRGPGLSRVITTKLDAPSQIEAKDVTDTTALITWSKPLAEIEGIELTYGPKDVPGDRTTIDLSEDENQYSIGNLRPHTEYEVTLISRRGDMESDPAKEVFVTDLDAPRNLKRVSQTDNSITLEWKNSHANIDNYRIKFAPISGGDHTELTVPKGNQATTRATLTGLRPGTEYGIGVTAVRQDRESAPATINAGTDLDNPKDLEVSDPTETTLSLRWRRPVAKFDRYRLTYVSPSGKKNEMEIPVDSTSFILRGLDAGTEYTISLVAEKGRHKSKPTTIKGSTEEEPELGNLSVSETGWDGFQLTWTAADGAYENFVIQVQQSDNPEETWNITVPGGQHSVNVTGLKANTPYNVTLYGVIRGYRTKPLYVETTTGAHPEVGELTVSDITPESFNLSWTTTNGDFDAFTIEIIDSNRLLEPMEFNISGNSRTAHISGLSPSTDFIVYLYGISHGFRTQAISAAATTEAEPEVDNLLVSDATPDGFRLSWTADDGVFDSFVLKIRDTKRKSDPLELIVPGHERTHDITGLKEGTEYEIELYGVSSGRRSQPINSVATTVVGSPKGISFSDITENSATVSWTPPRSRVDSYRVSYVPITGGTPNVVTVDGSKTRTKLVKLVPGVDYNVNIISVKGFEESEPISGILKTALDSPSGLVVMNITDSEALATWQPAIAAVDNYIVSYSSEDEPEVTQMVSGNTVEYDLNGLRPATEYTLRVHAVKDAQKSETLSTQFTTGLDAPKDLSATEVQSETAVITWRPPRAPVTDYLLTYESIDGRVKEVILDPETTSYTLTELSPSTQYTVKLQALSRSMRSKMIQTVFTTTGLLYPYPKDCSQALLNGEVTSGLYTIYLNGDRTQPLQVFCDMAEDGGGWIVFLRRQNGKEDFYRNWKNYVAGFGDPKDEFWIGLENLHKISSQGQYELRVDLRDRGETAYAVYDKFSVGDAKTRYRLRVDGYSGTAGDSMTYHNGRSFSTFDKDNDSAITNCALSYKGAFWYKNCHRVNLMGRYGDNNHSQGVNWFHWKGHEYSIQFAEMKLRPSSFRNLEGRRKRA
stoichiometry N: 6
